Assay results: article PMC6010752, “Development of GMP‐1 a molecular chaperone network modulator protecting mitochondrial function and its assessment in fly and mice models of Alzheimer's disease” (Journal of Cellular and Molecular Medicine, 2018)
Ends that are not written are not given here.

T1: FKBP51 (Homo sapiens, UniProt Q13451)
T1 construct: gene FKBP5; full-length (Gst-tag-free)
T1 sequence (Q13451 1-457): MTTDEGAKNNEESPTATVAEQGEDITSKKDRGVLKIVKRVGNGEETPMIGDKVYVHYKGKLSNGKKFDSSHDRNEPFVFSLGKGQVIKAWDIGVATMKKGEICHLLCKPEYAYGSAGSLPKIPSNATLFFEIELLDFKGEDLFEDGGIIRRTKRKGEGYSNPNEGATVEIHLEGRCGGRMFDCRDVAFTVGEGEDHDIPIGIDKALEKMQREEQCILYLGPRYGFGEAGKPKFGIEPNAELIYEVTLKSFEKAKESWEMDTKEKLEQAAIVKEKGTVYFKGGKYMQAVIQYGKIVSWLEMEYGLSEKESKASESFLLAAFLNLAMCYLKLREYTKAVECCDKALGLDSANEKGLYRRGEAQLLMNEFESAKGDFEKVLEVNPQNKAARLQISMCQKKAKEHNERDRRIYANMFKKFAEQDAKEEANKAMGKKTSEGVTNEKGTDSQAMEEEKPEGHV

T2: Tom34 (Homo sapiens, UniProt Q15785)
T2 construct: gene TOMM34; full-length (Gst-tag-free)
T2 sequence (Q15785 1-309): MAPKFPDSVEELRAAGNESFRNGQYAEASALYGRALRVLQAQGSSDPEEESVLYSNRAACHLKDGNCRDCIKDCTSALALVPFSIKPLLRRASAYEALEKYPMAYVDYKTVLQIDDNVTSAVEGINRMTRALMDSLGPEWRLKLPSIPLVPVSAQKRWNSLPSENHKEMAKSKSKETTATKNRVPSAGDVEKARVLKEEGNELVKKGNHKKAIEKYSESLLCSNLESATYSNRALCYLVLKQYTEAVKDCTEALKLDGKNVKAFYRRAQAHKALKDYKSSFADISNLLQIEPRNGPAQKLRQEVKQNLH

T3: Tom70 (Homo sapiens, UniProt O94826)
T3 construct: gene TOMM70; cytoplasm-exposed domain of Tom70, amino acids 65-608 (Gst-tag-free)
T3 sequence (O94826 65-608): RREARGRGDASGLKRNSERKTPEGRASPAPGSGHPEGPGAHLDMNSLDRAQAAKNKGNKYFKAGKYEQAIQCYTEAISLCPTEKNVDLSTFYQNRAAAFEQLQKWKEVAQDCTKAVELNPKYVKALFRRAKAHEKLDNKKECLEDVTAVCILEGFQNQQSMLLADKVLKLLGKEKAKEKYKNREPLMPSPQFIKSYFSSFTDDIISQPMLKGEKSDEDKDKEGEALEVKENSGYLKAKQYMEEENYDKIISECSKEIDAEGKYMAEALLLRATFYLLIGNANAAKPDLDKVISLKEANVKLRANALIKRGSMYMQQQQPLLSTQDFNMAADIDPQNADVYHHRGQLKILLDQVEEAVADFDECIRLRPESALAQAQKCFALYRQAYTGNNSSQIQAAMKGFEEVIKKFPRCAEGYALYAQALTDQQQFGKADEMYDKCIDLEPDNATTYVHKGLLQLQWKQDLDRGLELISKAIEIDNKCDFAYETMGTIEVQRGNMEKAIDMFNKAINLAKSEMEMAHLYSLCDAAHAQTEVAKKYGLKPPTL

T4: Tom34 (human, UniProt Q15785 1-309)
T4 construct: Tom34, human TPR protein, full length; Cloned into a pGEX6 vector; cDNA from the IMAGE consortium; source: E. coli BL21, purified (Gst‐trap 4B), Gst removed with PreScission protease
T4 sequence (looked up): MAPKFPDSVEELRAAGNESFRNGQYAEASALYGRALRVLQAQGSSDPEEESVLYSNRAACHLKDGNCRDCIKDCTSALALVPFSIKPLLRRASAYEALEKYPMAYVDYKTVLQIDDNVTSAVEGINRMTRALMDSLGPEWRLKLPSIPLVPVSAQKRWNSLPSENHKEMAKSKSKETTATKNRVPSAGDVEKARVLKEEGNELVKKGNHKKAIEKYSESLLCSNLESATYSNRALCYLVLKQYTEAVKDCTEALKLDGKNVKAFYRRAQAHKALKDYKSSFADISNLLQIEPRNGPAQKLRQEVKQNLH

T5: Tom70, cytoplasm‐exposed domain, amino acids 65‐608 (human, UniProt O94826 65-608)
T5 construct: Tom70, human, mitochondrial import receptor, cytoplasm‐exposed domain, amino acids 65‐608; Cloned into a pGEX6 vector; cDNA from the IMAGE consortium; also called human Tom70 protein; source: E. coli BL21, purified (Gst‐trap 4B), Gst removed with PreScission protease
T5 sequence (looked up): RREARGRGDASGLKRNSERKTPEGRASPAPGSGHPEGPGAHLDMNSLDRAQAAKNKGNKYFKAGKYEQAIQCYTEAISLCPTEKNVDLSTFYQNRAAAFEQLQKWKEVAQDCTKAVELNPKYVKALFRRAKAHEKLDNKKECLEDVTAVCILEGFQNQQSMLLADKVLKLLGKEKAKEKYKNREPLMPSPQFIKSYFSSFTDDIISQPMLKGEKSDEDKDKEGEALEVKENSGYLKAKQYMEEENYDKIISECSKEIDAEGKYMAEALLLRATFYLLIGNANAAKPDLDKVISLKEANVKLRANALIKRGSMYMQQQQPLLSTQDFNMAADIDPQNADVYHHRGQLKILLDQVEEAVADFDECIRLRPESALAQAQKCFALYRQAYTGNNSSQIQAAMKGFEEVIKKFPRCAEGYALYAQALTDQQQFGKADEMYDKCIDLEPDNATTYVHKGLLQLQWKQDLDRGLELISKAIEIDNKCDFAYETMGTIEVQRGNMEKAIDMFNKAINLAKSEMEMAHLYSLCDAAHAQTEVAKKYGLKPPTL

T6: FKBP51 (human, UniProt Q13451 1-457)
T6 construct: FKBP51, human TPR protein, full length; Cloned into a pGEX6 vector; cDNA from the IMAGE consortium; source: E. coli BL21, purified (Gst‐trap 4B), Gst removed with PreScission protease
T6 sequence (looked up): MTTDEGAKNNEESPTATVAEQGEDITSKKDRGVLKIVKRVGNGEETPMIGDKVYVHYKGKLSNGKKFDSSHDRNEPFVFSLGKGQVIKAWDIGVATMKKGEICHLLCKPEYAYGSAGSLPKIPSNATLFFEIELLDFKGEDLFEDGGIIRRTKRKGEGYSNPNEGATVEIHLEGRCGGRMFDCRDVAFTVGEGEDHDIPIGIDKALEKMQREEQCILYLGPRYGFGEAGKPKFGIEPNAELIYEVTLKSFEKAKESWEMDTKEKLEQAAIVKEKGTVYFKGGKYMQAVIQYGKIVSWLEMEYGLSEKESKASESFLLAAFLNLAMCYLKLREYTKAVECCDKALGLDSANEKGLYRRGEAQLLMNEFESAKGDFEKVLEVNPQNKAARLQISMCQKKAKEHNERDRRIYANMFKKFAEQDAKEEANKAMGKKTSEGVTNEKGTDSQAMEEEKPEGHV

T7: PP5 (human, UniProt P53041 1-499)
T7 construct: PP5, human TPR protein, full length; Cloned into a pGEX6 vector; cDNA from the IMAGE consortium; source: E. coli BL21, purified (Gst‐trap 4B), Gst removed with PreScission protease
T7 sequence (looked up): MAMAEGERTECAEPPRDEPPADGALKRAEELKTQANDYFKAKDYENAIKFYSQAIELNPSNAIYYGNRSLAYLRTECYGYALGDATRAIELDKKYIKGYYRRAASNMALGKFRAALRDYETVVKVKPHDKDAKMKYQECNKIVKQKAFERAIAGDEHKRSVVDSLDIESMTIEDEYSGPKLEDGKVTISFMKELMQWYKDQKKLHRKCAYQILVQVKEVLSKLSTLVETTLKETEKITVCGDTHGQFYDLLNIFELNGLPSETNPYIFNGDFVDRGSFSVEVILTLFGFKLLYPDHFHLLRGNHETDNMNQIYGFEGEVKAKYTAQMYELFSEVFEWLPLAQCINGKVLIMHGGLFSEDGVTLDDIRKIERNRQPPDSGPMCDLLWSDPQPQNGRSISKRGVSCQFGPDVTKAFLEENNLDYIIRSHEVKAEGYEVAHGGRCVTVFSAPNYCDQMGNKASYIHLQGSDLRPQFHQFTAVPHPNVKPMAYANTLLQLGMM


Columns and labels:
[1] = target: T1, FKBP51; assay: dot-blot competition of Hsp90 C-terminal peptide-HRP (C90-HRP) with purified protein; format: binding
[2] = target: T2, Tom34; assay: as above; format: binding
[3] = target: T3, Tom70; assay: as above; format: binding
[4] = target: T4, Tom34; assay: far-Western, overlay or dot blot; Gst‐tag‐free proteins applied to nitrocellulose membrane, blocked with 3% BSA in TBS‐T; C90‐HRP (1 × 500 dilution) incubated for 1 hour; ECL signal; with DMSO or increasing concentrations of the compound GMP‐1; conditions: both partners purified
[5] = target: T5, Tom70, cytoplasm‐exposed domain, amino …; assay: as above; conditions: both partners purified
[6] = target: T6, FKBP51; assay: as above; conditions: both partners purified
[7] = target: T7, PP5; assay: as above; conditions: both partners purified

IC50 [1]	IC50 [2]	IC50 [3]	binding result [4]	binding result [5]	binding result [6]	binding result [7]	Molecule
150 µM	180 µM	45 µM	–	–	–	–	COCc1cc(O)n2c(n1)nc1ccccc12 [GMP-1, 2‐(methoxymethyl)pyrimido[1,2‐a]benzimidazol‐4‐ol]
–	–	–	binds	binds	binds	binds	HHHHHHDDTSRMEEVD-OH (also: coupled to horse-radish peroxidase (HRP), 10 amino acids of the C‐terminus of human Hsp90 alpha; also called Hsp90‐derived peptide; Hsp90 peptide conjugated to HRP; source: synthetic peptide (GL Biochem, Shanghai), coupled to HRP with the Lightning‐link HRP labeling kit; not shown: His6, N-terminal, kept)
